The target in assay [1] is FcγRIIIA on natural killer cells of human donor PBMC (human) (UniProt P08637). In words: cell-based or functional assay.
Assay [2] has as its target FcγRIIB (CD32B) (human) (UniProt P31994). Briefly: BIAcore (as Table 27). (In general: SPR reads the build-up and loss of mass on a sensor chip optically.)
For assay [3], the target named is FcγRIIIA (CD16A), V158 allotype (human) (UniProt P08637). Briefly: BIAcore (as Table 27).
Assay [4] has as its target FcγRIIIA (CD16A), F158 allotype (human) (UniProt P08637). In words: BIAcore (as Table 27).
Assay [5] concerns the target FcγRIIB (CD32B) (human) (UniProt P31994). In words: BIAcore.
Assay [6] deals with FcγRIIIA (CD16A), V158 allotype (human) (UniProt P08637). In words: BIAcore.
The target in assay [7] is FcγRIIIA (CD16A), F158 allotype (human) (UniProt P08637). Briefly: BIAcore.
Assay [8] deals with FcγRIIA (CD32A), H131 allotype (human) (UniProt P12318). Briefly: BIAcore.

“And” between values parts separate entries of the source, which are not always exact repeats. Equal entries are not always repeated.

Sequence of FcγRIIA (CD32A), H131 allotype (human) (P12318 34-217 limits assumed): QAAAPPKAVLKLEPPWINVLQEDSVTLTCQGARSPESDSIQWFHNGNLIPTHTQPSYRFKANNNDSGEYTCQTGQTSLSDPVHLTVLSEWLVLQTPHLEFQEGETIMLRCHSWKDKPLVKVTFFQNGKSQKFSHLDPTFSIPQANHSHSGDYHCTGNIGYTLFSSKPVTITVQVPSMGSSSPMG
Sequence of FcγRIIB (CD32B) (human) (P31994 43-217 limits assumed): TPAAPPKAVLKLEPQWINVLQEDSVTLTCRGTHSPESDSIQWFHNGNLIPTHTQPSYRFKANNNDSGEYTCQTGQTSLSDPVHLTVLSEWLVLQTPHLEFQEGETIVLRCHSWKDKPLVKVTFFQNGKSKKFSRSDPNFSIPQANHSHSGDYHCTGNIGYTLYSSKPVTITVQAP
Sequence of FcγRIIIA (CD16A), F158 allotype (human) (P08637 17-208 limits assumed): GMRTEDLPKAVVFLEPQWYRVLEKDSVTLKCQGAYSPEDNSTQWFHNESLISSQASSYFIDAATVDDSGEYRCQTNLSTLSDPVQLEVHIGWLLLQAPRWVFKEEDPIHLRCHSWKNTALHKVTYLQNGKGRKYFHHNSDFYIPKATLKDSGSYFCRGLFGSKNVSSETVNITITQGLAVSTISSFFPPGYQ
Sequence of FcγRIIIA on natural killer cells of human donor PBMC (human) (P08637 17-254): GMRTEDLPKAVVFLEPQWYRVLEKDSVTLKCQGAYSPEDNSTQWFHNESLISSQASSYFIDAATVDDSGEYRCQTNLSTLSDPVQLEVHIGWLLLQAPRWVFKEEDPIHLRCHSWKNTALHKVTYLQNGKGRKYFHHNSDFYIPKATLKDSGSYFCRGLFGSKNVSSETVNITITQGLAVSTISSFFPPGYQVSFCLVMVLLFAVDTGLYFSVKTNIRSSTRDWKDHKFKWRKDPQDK
Sequence of FcγRIIIA (CD16A), V158 allotype (human) (P08637 17-208 F176V limits assumed): as the sequence (P08637 17-208 limits assumed) above, with F160V counted along it

In assay [1], “ch4-4-20 MgFc42 (D221E, D270E, V308A, Q311H, P396L, G402D) (antibody)” had a Relative rate of lysis (ADCC, vs wild type ch4-4-20) of 3.17.
The same measure, in the same setting: the result for “ch4-4-20 MgFc44 (K334N, P396L) (antibody)” reads 2.43; that for “ch4-4-20 MgFc46 (P217S, P396L) (antibody)”, 2.04.
Still for that read-out and setting: the result for “ch4-4-20 MgFc47 (K210M, P396L) (antibody)” reads 2.02; that for “ch4-4-20 MgFc48 (V379M, P396L) (antibody)”, 2.01; that for “ch4-4-20 MgFc50 (P247S, P396L) (antibody)”, 2.1.
On the same count and under the same terms, under “ch4-4-20 MgFc51 (Q419H, P396L) (antibody)” stands 2.24; under “ch4-4-20 MgFc52 (V240A, P396L) (antibody)”, 2.35.
Consider “ch4-4-20 MgFc54 (F243L, V305I, A378D, F404S, P396L) (antibody)”, for which the Relative rate of lysis (ADCC, vs wild type ch4-4-20) in assay [1] worked out at 3.59.
Still for that read-out and setting: under “ch4-4-20 MgFc55 (R255L, P396L) (antibody)” stands 2.79.
“ch4-4-20 MgFc57 (L242F, P396L) (antibody)” showed a Relative rate of lysis (ADCC, vs wild type ch4-4-20) in assay [1] of 2.4.
Still for that read-out and setting: under “ch4-4-20 MgFc59 (K370E, P396L) (antibody)” stands 2.47; under “ch4-4-20 MgFc60 (P217S, P396L) (antibody)”, 1.44.
“immunoglobulin with Fc variant D270E (antibody)”: the Koff WT/Koff mutant is 0.39 in assay [2]; 1.25 in assay [3]; 1.48 in assay [4]; 0.39 in assay [5]; 1.25 in assay [6]; 1.48 in assay [7]. Further, the Koff WT/Koff mutant in assay [8] amounted to 2.24.
On to “immunoglobulin with Fc variant D270E, P396L (antibody)”, for which the Koff WT/Koff mutant came to 0.89 in assay [2]; 1.38 in assay [3]; 1.65 in assay [4]; 0.89 in assay [5]; 1.38 in assay [6]; 1.65 in assay [7]. The Koff WT/Koff mutant in assay [8] turned out to be 2.44.
As for “immunoglobulin with Fc variant D270E, P396L, Q419H (antibody)”, the Koff WT/Koff mutant in assay [2] is 0.68; in assay [3], 1.64; in assay [5], 0.68; in assay [6], 1.64; in assay [8] it was 1.7.
In the case of “immunoglobulin with Fc variant F243I, R292P, Y300L, V305I, P396L (antibody)”, the Koff WT/Koff mutant in assay [2] was determined as 1.05; in assay [4], 3.12; in assay [5], 1.05; in assay [7], 3.12; in assay [8], 1.49.
As for “immunoglobulin with Fc variant F243L, D270E, G316D, R416G (antibody)”, the Koff WT/Koff mutant in assay [2] stood at 0.2; in assay [3], 1.5; in assay [4] it was 1.34; in assay [5] it was 0.2; in assay [6], 1.5; in assay [7], 1.34. Also, the Koff WT/Koff mutant in assay [8] came out at 1.22.
Take “immunoglobulin with Fc variant F243L, D270E, K392T, P396L (antibody)”: the Koff WT/Koff mutant was 0.44 in assay [2]; 3.16 in assay [3]; 2.44 in assay [4]; 0.44 in assay [5]; 3.16 in assay [6]; 2.44 in assay [7]. In assay [8], this substance had a Koff WT/Koff mutant of 1.7.
For “immunoglobulin with Fc variant F243L, D270E, P396L, Q419H (antibody)”, the Koff WT/Koff mutant in assay [2] was determined as 0.26; in assay [3], 1.46; in assay [4], 1.15; in assay [5], 0.26; in assay [6], 1.46; in assay [7] it was 1.15. Besides, the Koff WT/Koff mutant in assay [8] is 1.11.
“immunoglobulin with Fc variant F243L, P247L, D270E, N421K (antibody)”: the Koff WT/Koff mutant is 0.32 in assay [2]; 2.3 in assay [3]; 3.45 in assay [4]; 0.32 in assay [5]; 2.3 in assay [6]; 3.45 in assay [7]. In assay [8], this substance returned a Koff WT/Koff mutant of 0.98.
Consider “immunoglobulin with Fc variant F243L, P247L, N421K (antibody)”, for which the Koff WT/Koff mutant in assay [2] is 0.17; in assay [3], 1.89; in assay [4] it was 1.71; in assay [5] it was 0.17; in assay [6] it was 1.89; in assay [7], 1.71. In addition, the Koff WT/Koff mutant in assay [8] came to 0.39.
For the substance “immunoglobulin with Fc variant F243L, P396L (antibody)”, the Koff WT/Koff mutant in assay [2] was 2.22; in assay [3], 1.49; in assay [4], 1.6; in assay [5], 2.22; in assay [6], 1.49; in assay [7], 1.6. Further, the Koff WT/Koff mutant in assay [8] came out at 1.5.
Regarding “immunoglobulin with Fc variant F243L, R255L, D270E, P396L (antibody)”, the Koff WT/Koff mutant is 0.38 in assay [2]; 1.75 in assay [3]; 1.64 in assay [4]; 0.38 in assay [5]; 1.75 in assay [6]; 1.64 in assay [7]. The substance further returned a Koff WT/Koff mutant in assay [8] of 1.44.
Consider “immunoglobulin with Fc variant K392T, P396L (antibody)”, for which the Koff WT/Koff mutant in assay [2] came out at 2.35; in assay [3] it was 1.49; in assay [4] it was 1.81; in assay [5], 2.35; in assay [6], 1.49; in assay [7], 1.81. The same substance had a Koff WT/Koff mutant in assay [8] of 1.22.
As to “immunoglobulin with Fc variant P247L, D270E, Y300L, N421K (antibody)”, the Koff WT/Koff mutant in assay [5] is 0.8; in assay [6], 2.44; in assay [7] it was 1.16; in assay [8] it was 1.84.
“immunoglobulin with Fc variant P396L, Q419H (antibody)”: the Koff WT/Koff mutant in assay [2] came out at 1.33; in assay [3], 1.19; in assay [4] it was 1.19; in assay [5] it was 1.33; in assay [6] it was 1.19; in assay [7], 1.19. The substance further gave a Koff WT/Koff mutant in assay [8] of 0.63.
On to “immunoglobulin with Fc variant R255L, D270E, R292G, P396L (antibody)”, for which the Koff WT/Koff mutant in assay [2] was determined as 0.65; in assay [5], 0.65; in assay [8] it was 1.05.
As to “immunoglobulin with Fc variant R255L, D270E, Y300L, P396L (antibody)”, the Koff WT/Koff mutant stood at 0.87 in assay [2]; 1.52 in assay [3]; 1.74 in assay [4]; 0.87 in assay [5]; 1.52 in assay [6]; 1.74 in assay [7]. The same substance showed a Koff WT/Koff mutant in assay [8] of 2.6.
With “immunoglobulin with Fc variant R255L, P396L (antibody)”, the Koff WT/Koff mutant amounted to 2.22 in assay [2]; 1.09 in assay [3]; 1.39 in assay [4]; 2.22 in assay [5]; 1.09 in assay [6]; 1.39 in assay [7]. Further, the Koff WT/Koff mutant in assay [8] turned out to be 1.34.
For “immunoglobulin with Fc variant R292G (antibody)”, the Koff WT/Koff mutant in assay [2] was 0.25; in assay [3] it was 1.54; in assay [5], 0.25; in assay [6], 1.54; in assay [8], 0.14.
As for “immunoglobulin with Fc variant R292P, V305I (antibody)”, the Koff WT/Koff mutant in assay [3] was 1.32 and 1.59; in assay [4], 1.28 and 2.11; in assay [6], 1.59 and 1.32; in assay [7], 2.11 and 1.28; in assay [8] it was 1.56 and 0.75.
For the substance “immunoglobulin with Fc variant R292P, V305I, P396L (antibody)”, the Koff WT/Koff mutant amounted to 0.92 in assay [2]; 1.85 in assay [3]; 1.9 in assay [4]; 0.92 in assay [5]; 1.85 in assay [6]; 1.9 in assay [7]. The substance further displayed a Koff WT/Koff mutant in assay [8] of 1.5.
As to “immunoglobulin with Fc variant V284M, R292P, K370N (antibody)”, the Koff WT/Koff mutant came to 0.37 in assay [2]; 1.14 in assay [3]; 1.37 in assay [4]; 0.37 in assay [5]; 1.14 in assay [6]; 1.37 in assay [7]. In assay [8], this substance displayed a Koff WT/Koff mutant of 1.79.
